Assay [1] concerns the target T1, Extracellular domain of cyno PD1 (cPD1-ECD) (Macaca fascicularis (cynomolgus)).
T1 construct: Expressed with a hexahistidine tag or as Fc fusion; also called cynoPD1-ECD; cynoPD-1-ECD
T1 chain: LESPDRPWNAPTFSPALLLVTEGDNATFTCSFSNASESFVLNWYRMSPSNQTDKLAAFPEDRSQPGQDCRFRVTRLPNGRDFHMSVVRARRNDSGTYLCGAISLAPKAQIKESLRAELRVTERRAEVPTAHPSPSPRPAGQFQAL
The assay is described as follows: SPR ProteOn, cynoPD1-ECD; RANGE low replicate.

Assay [2] deals with T2, Extracellular domain of human PD1 (huPD1-ECD) (human, UniProt Q15116 25-169, biotinylated in the ligand inhibition assay (sites not given)).
T2 construct: Expressed with a hexahistidine tag or as Fc fusion; also called biotinylated PD-1
T2 sequence (Q15116 25-169 limits assumed): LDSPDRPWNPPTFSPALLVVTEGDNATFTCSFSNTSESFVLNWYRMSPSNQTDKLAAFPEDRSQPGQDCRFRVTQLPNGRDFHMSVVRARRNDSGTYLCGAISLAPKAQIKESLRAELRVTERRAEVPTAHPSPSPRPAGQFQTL
The assay is described as follows: MSD ligand inhibition, competitor coated cynoPDL1-ECD.

Assay [3] concerns the target T2, Extracellular domain of human PD1 …. The assay is described as follows: SPR ProteOn, captured mAb, huPD1-ECD analyte; approximation (chi2 > 20%).
Experimental: (§1) Affinity measurements using Surface Plasmon Resonance (SPR) were performed using a ProteOn XPR36 system. A biosensor surface was prepared by coupling a mixture of anti-IgG Fc modified alginate polymer layer surface of a GLC chip using the manufacturer instructions for amine-coupling chemistry. […] The collected data were processed and fitted to a Langmuir 1:1 binding model. The result for each mAb was reported in the format of kₒₙ (On-rate), koff (Off-rate) and KD (equilibrium dissociation constant).
STDEV were calculated for 3 or more replicates generated for human and cyno proteins. If less than 3 replicates were calculated, RANGE was indicated. RANGE is defined as the low and high values for the replicates tested.
The target of assay [4] is T1, Extracellular domain of cyno PD1 …. Put plainly: SPR ProteOn, captured mAb, cynoPD1-ECD analyte.
Experimental: as §1
(§2) STDEV were calculated for 3 or more replicates generated for human and cyno proteins. If less than 3 replicates were calculated, RANGE was indicated. RANGE is defined as the low and high values for the replicates tested. For samples in the Table 10 or Table 11 without value indicated in RANGE or STDEV, only one experiment was performed.
For assay [5] the target is unchanged. Put plainly: SPR ProteOn, cynoPD1-ECD; RANGE high replicate.
The target is the same in assay [6]. The assay is described as follows: SPR ProteOn, cynoPD1-ECD; RANGE high replicate; RANGE high replicate.
For assay [7], the target named is T2, Extracellular domain of human PD1 …. Put plainly: SPR ProteOn, captured mAb, huPD1-ECD analyte.
Experimental: as §1, §2
Assay [8] addresses T3, Full length human PD1 (huPD1) on cells (human, UniProt Q15116 25-288).
T3 construct: on T cells of human donors in the MLR and CMV assays (functional); also called PD-1 on Jurkat cells
The assay is described as follows: flow cytometry, PHA-stimulated Jurkat cells. (A flow cytometer gives signals particle by particle.)
Experimental: (§3) Jurkat cells were stimulated overnight with 20 ng/ml of PHA, harvested, washed, and checked for viability. The cells were then incubated at 6-10° C. for 45-60 minutes with various concentrations of test antibodies, washed and incubated at 6-10° C. for 45-60 minutes with FITC-labeled goat anti-human IgG. The cells were washed and fixed with BD Cytofix, refrigerated overnight and analyzed on a MACSQuant flow cytometer. The percentage of PD-1 positive cells at each antibody concentration was plotted vs log of the antibody concentration and EC₅₀ values were generated in Prism.

The target of assay [9] is T4, Full length human TIM-3 on transfected cells (human, UniProt Q8TDQ0 22-301).
T4 construct: also called Human cells
Put plainly: binding to cells transfected with human TIM-3.

Assay [10] deals with T5, cyno TIM-3 on transfected cells (cyno, UniProt A0A2K5U3G7 22-294).
T5 construct: whole, on cells; also called Cyno cells
T5 sequence: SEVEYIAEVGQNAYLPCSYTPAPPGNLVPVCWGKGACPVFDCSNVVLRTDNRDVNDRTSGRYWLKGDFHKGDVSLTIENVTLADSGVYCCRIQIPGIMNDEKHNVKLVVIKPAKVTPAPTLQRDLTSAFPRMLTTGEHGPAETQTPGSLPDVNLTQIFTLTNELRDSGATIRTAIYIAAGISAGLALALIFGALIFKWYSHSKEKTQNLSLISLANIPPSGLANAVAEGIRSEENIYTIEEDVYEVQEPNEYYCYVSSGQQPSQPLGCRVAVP
The assay is described as follows: binding to cells transfected with cyno TIM-3.

The target of assay [11] is T6, recombinant human TIM-3-Fc fusion protein (huTIM-3-Fc) (human, UniProt Q8TDQ0 22-200).
T6 construct: range 22-200; Bought from R&D Systems (NS0-derived); Deglycosylated for HDX-MS; also called recombinant human Fc-TIM-3 chimera; TIM-3 IgG1 Fc Chimera; not shown: IgG1 Fc of the bought chimera
Put plainly: competition ELISA on coated Fc-TIM-3, competitor galectin-9. In general terms: An ELISA detects its analyte on a solid surface through an enzyme-linked reagent.

The target of assay [12] is T1, Extracellular domain of cyno PD1 …. The assay is described as follows: SPR ProteOn, cynoPD1-ECD; RANGE low replicate.
Experimental: as §1
(§4) STDEV were calculated for 3 or more replicates generated for human and cyno proteins. If less than 3 replicates were calculated, RANGE is indicated. RANGE is defined as the low and high values for the replicates tested. For samples without RANGE or STDEV, only one experiment was performed
Assay [13] addresses T2, Extracellular domain of human PD1 …. The assay is described as follows: SPR ProteOn, captured mAb, huPD1-ECD analyte. This is another data set of the same source.
Experimental: as §1, §4
The target is the same in assay [14]. The assay is described as follows: SPR ProteOn, huPD1-ECD; RANGE high replicate; RANGE high replicate.
Experimental: as §1, §4
Assay [15] has the same target. Put plainly: MSD ligand inhibition, competitor coated cynoPDL1-ECD. This is another data set of the same source.
Experimental: (§5) The ligand inhibition assay design was MSD (Mescoscale Discovery) based. A MSD plate was directly coated with ligand (cynoPDL1-ECD, huPDL1-ECD or huPDL2-ECD) and incubated overnight at 4° C. The following day, the coating solution was removed and the plate was blocked. […] Depending on the panel of antibodies to be tested, the antibodies were tested as titrations or at a fixed concentration.
Assay [16] concerns the target T3, Full length human PD1 (huPD1) on cells. Put plainly: flow cytometry, PHA-stimulated Jurkat cells. This is another data set of the same source.
Experimental: as §3
The target in assay [17] is T2, Extracellular domain of human PD1 …. The assay is described as follows: SPR ProteOn, huPD1-ECD; RANGE low replicate.
Experimental: as §1, §4
Assay [18] deals with T1, Extracellular domain of cyno PD1 …. Put plainly: SPR ProteOn, cynoPD1-ECD; RANGE high replicate; RANGE high replicate.
Experimental: as §1, §4
The target in assay [19] is T2, Extracellular domain of human PD1 …. The assay is described as follows: SPR ProteOn, huPD1-ECD; RANGE high replicate.
Experimental: as §1, §4
The target is the same in assay [20]. Put plainly: MSD ligand inhibition, competitor coated huPDL2-ECD.
Experimental: as §5
Assay [21] deals with T1, Extracellular domain of cyno PD1 …. Put plainly: SPR ProteOn, cynoPD1-ECD; RANGE high replicate.
Experimental: as §1, §4
Assay [22] concerns the target T2, Extracellular domain of human PD1 …. Put plainly: SPR ProteOn, captured mAb; antigen species not given.
Assay [23] addresses T1, Extracellular domain of cyno PD1 …. The assay is described as follows: SPR ProteOn, captured mAb, cynoPD1-ECD analyte.
Assay [24] has as its target T2, Extracellular domain of human PD1 …. The assay is described as follows: MSD ligand inhibition, competitor coated huPDL1-ECD.
Experimental: as §5
Assay [25] deals with T1, Extracellular domain of cyno PD1 …. Put plainly: SPR ProteOn, cynoPD1-ECD; RANGE low replicate; RANGE low replicate.
Experimental: as §1, §4
The target in assay [26] is T3, Full length human PD1 (huPD1) on cells. Put plainly: cell-based or functional assay.

Read-outs that look alike come from different tables or passages of the source.

T3 sequence (Q15116 25-288 limits assumed): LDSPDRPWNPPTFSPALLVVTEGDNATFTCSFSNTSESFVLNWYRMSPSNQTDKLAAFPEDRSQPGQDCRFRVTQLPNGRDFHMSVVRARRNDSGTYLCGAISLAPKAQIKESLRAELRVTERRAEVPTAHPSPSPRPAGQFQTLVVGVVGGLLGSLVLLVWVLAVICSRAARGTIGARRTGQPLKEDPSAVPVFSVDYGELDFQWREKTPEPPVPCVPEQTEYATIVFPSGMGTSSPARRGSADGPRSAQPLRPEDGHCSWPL

B1: PD1B149 (antibody, human IgG2, kappa, V domains shown)
VH: QVQLVQSGAEVKKPGSSVKVSCKASGGTFSSYAISWVRQAPGQGLEWMGGIIPIFGTANYAQKFQGRVTITADESTSTAYMELSSLRSEDTAVYYCARPGLAAAYDTGNLDYWGQGTLVTVSS
VL: EIVLTQSPATLSLSPGERATLSCRASQSVRNYLAWYQQKPGQAPRLLIHDASNRATGIPARFSGSGSGTDFTLTISSLEPEDFAVYYCQQRNYWPLTFGQGTKVEIKR
notes: IgG2sigma/kappa; VH 41, VL 50; also called PD1H24/PD1L128
In general, Kd refers to the equilibrium constant for the complex coming apart. In general, koff refers to the first-order rate constant of dissociation. One may read the kon as the second-order rate constant of association. Low readings indicate slower complex formation, high ones faster complex formation. Usually EC50 stands for the concentration needed to bring the measured effect to its halfway point. A higher EC50 goes with a need for much substance. As for B1, the equilibrium dissociation constant (Kd) in [1] was 10.9 nM; in assay [3] it was ~12 nM; in assay [4] it was 11.2 nM; in [5] it was 11.4 nM. Further, the koff in assay [1] came to 0.00348 s⁻¹; in [4], 0.00357 s⁻¹; in [6], 0.00365 s⁻¹; in [7], 0.0062 s⁻¹. Further, the kon in assay [1] is 304000 M⁻¹ s⁻¹; in assay [4], 320000 M⁻¹ s⁻¹; in [6], 336000 M⁻¹ s⁻¹; in assay [7], 532000 M⁻¹ s⁻¹. Besides, in assay [2], the “percentage ligand not blocked at 1 µg/ml” value was 7%. For the same molecule, in assay [2], the “percentage ligand not blocked at 10 µg/ml” value is 7%. The molecule also yielded an EC50 in [8] of 0.08 µg/mL.

B2: TM3B105 (antibody, human IgG2, kappa, V domains shown)
VH: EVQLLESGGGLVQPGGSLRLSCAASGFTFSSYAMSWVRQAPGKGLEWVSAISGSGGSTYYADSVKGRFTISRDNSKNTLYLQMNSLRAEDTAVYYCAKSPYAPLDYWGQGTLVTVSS
VL: EIVLTQSPATLSLSPGERATLSCRASQSVNDYLAWYQQKPGQAPRLLIYDASNRATGIPARFSGSGSGTDFTLTISSLEPEDFAVYYCQQGGHAPITFGQGTKVEIKR
notes: IgG2sigma/kappa; VH 146, VL 156; also called TM3H24/TM3L33
For the molecule B2, the values for the EC50 in assay [9] and in [10] were 0.46 µg/mL and 0.03 µg/mL, respectively. For the same molecule, the “Galectin 9 Inhibition, % inhibition (maximal)” value in assay [11] is 69.8%.

B3: TM3B190 (antibody, V domains shown)
VH: DVQLQESGPGLVKPSQSLSLTCTVTGYSITSDYAWNWIRQFPGNKLEWMGYINYSGRTSYNPSLKSRISITRDTSKNQFFLQLNSVTTEDTATYYCTSGGNFDYWGQGTTLTVSS
VL: DIVMTQSPSSMSASLGDRITITCQATQDIVKNLNWYQQKPGKPPSFLIHYVTELAEGVPSRFSGSGSGSDYSLTISNLESEDFADYYCLQFYEFPLTFGAGTKLELK
notes: Mouse-derived variable domains; also called TM3H96/TM3L62
Consider B3, for which the EC50 amounted to 0.35 µg/mL in assay [9] and 0.08 µg/mL in assay [10]. Also, the “Galectin 9 Inhibition, % inhibition (maximal)” value in [11] turned out to be 60.7%.

B4: TM3B189 (antibody, V domains shown)
VH: EVQLQQSGPELLKPGASVKMSCKASGYTFTSYVMYWVKQKPGQGLEWIGYINPYNDGTKYNEKFKGKATLTSDKSSSTAYMELSRLTSEDSAVYYCTRDDYDVAPFAYWGQGTLVTVSA
VL: DIVLTQSPASLAVSLGQRATISCRASESLDSYGNSYIHWYQQKPGQPPKLLIYLASNLESGVPARFSGSGSKTDFTLTIDPVEADDPATYYCQQNNEDPFTFGSGTKLEIK
notes: Mouse-derived variable domains; also called TM3H141/TM3L61
For B4, the EC50 in [9] turned out to be 0.74 µg/mL; in [10] it was 0.19 µg/mL. In assay [11], the “Galectin 9 Inhibition, % inhibition (maximal)” value was 76.4%.

B5: PD1B71 (antibody, V domains shown)
VH: QVQLVQSGAEVKKPGSSVKVSCKASGGTFSSYAISWVRQAPGQGLEWMGGIIPIFGTANYAQKFQGRVTITADESTSTAYMELSSLRSEDTAVYYCARGTLDRTGHLDYWGQGTLVTVSS
VL: EIVLTQSPATLSLSPGERATLSCRASQSVSSYLAWYQQKPGQAPRLLIYDASNRATGIPARFSGSGSGTDFTLTISSLEPEDFAVYYCQQRSNWPLTFGQGTKVEIK
notes: Tested as IgG2sigma/kappa; also called PD1H108/PH9L3
One may read the IC50 as the midpoint of a concentration-inhibition curve. A high value points to lower potency. On to B5, for which the “percentage ligand not blocked at 1 µg/ml” value in assay [2] worked out at 6%. Moreover, the “percentage ligand not blocked at 10 µg/ml” value in [2] came to 9%. Further, the Kd in assay [12] came to 44.4 nM; in assay [4], 66.8 nM; in assay [13], 23.5 nM; in assay [7], 49.9 nM; in [17] it was 22.4 nM; in assay [19], 24.7 nM. Besides, the Kd in assay [21] was 61.4 nM; in assay [22] it was 120 nM; in assay [23], 52 nM. The off-rate (koff) in [12] came to 0.0185 s⁻¹; in [4], 0.0203 s⁻¹; in assay [13], 0.0225 s⁻¹; in [14] it was 0.023 s⁻¹; in assay [7], 0.0273 s⁻¹; in assay [17], 0.0219 s⁻¹. The off-rate constant (koff) in assay [18] stood at 0.0207 s⁻¹; in assay [22], 0.0277 s⁻¹; in [23], 0.0196 s⁻¹. Besides, the on-rate (kon) in assay [12] turned out to be 337000 M⁻¹ s⁻¹; in assay [4] it was 304000 M⁻¹ s⁻¹; in [13] it was 955000 M⁻¹ s⁻¹; in assay [7] it was 548000 M⁻¹ s⁻¹; in assay [17] it was 933000 M⁻¹ s⁻¹; in assay [18], 417000 M⁻¹ s⁻¹. Also, the association rate constant (kon) is 976000 M⁻¹ s⁻¹ in [19], 231000 M⁻¹ s⁻¹ in assay [22] and 377000 M⁻¹ s⁻¹ in assay [23]. The results for the IC50 in assay [15], in [20] and in assay [24] were 0.014 to 0.015 µg/mL, 0.035 µg/mL and 0.024 µg/mL, respectively. In addition, the concentration for a half-maximal effect (EC50) in assay [16] was 0.13 to 0.47 µg/mL; in [8] it was 0.13 µg/mL.

B6: PD1B195 (antibody, V domains shown)
VH: QVQLVQSGAEVKKPGSSVKVSCKASGGTFSSYAISWVRQAPGQGLEWMGGIIPIFDTANYAQKFQGRVTITADESTSTAYMELSSLRSEDTAVYYCARPGLAAAYDTGSLDYWGQGTLVTVSS
VL: EIVLTQSPATLSLSPGERATLSCRASQSVDSYLAWYQQKPGQAPRLLIYDASNRATGIPARFSGSGSGTDFTLTISSLEPEDFAVYYCQQREYWPLTFGQGTKVEIK
notes: also called PD1H170/PD1L67
As to B6, the koff turned out to be 0.000396 s⁻¹ in assay [25], 0.00152 s⁻¹ in assay [13], 0.000419 s⁻¹ in [18] and 0.000408 s⁻¹ in assay [23]. The Kd in assay [12] was 0.91 nM; in assay [13] it was 1.23 nM; in assay [21] it was 0.97 nM; in assay [23] it was 0.94 nM. Also, the kon in assay [12] turned out to be 430000 M⁻¹ s⁻¹; in [13], 1.23e+06 M⁻¹ s⁻¹; in [21] it was 434000 M⁻¹ s⁻¹; in assay [23] it was 432000 M⁻¹ s⁻¹. Besides, the “CMV EC50, nM (IFN-γ induction)” value in [26] came to 1.64 nM.

The values above are taken from patent publication US20210277110A1 (Janssen / Centocor, published 2021).
